In PMC8217511 (2021) one finds Kd data, which are given here for two molecules.

B1: CrSAS-6_6HR, N-terminal domain and six heptad repeats of the coiled-coil of Chlamydomonas reinhardtii SAS-6 (domain or fragment)
chain: MPLLLDDGDPKAQTGFDLSTATTLFWRPVPVHVKQQDREDVLEELTFRILTGVAKQNHNLRILRIHISSDSDLFFLHTLEVSEEDFQSLKNDQGILVDFASFPGKIISLLEKCILAQPGDSPRFQAVLTIRGGESVFKIVEINDFKQLPHITLAFRPGNDSVVKQFLAFRLSEVKGTCHDLSDDLSRTRDDRDSMVAQLAQCRQQLAQLREQYDKHLLEVQAQAKT

Read-outs that look alike come from different tables or passages of the source.

Experiment in all cases: ITC
Test [1] deals with MBCRS6-5.
Test [2] concerns the target MBCRS6-12.
The target in test [3] is MBCRS6-5. The source holds these as a separate data set.
The target in test [4] is MBCRS6-3.
Test [5] deals with MBCRS6-6.
The target in test [6] is MBCRS6-2.
The target in test [7] is MBCRS6-4.
The target of test [8] is B1.

On to B1, for which the dissociation constant Kd in test [1] is 31.1 nM; in test [2], 193 nM; in test [3], 31 nM; in test [4], 369 nM; in test [5], 570 nM; in test [6] it was 88700 nM. The molecule also gave a Kd in test [7] of 316 nM.

B2: monobody MB_(CRS6)-15, purified (designed binder)
chain: GSVSSVPTKLEVVAATPTSLLISWDAPAVTVYLYVITYGETGGNSPVQEFEVPGSKSTATISGLKPGVDYTITVYASSKHSSRYASPISINYRT
The molecule B2 came in with a Kd in test [8] of 468 nM.

The Kd is the free concentration of one partner at which half of the binding sites on the other are occupied at equilibrium, for simple one-to-one binding.
